This data set concerns the molecule itself. The experiment in a line: SEC.

Changes are numbered by the printed parent chain. Names may count otherwise.

B1: Spa47 E267A (enzyme)
chain: MSYTKLLTQLSFPNRISGPILETSLSDVSIGEICNIQAGIESNEIVARAQVVGFHDEKTILSLIGNSRGLSRQTLIKPTAQFLHTQVGRGLLGAVVNPLGEVTDKFAVTDNSEILYRPVDNAPPLYSERAAIEKPFLTGIKVIDSLLTCGEGQRMGIFASAGCGKTFLMNMLIEHSGADIYVIGLIGERGREVTETVDYLKNSEKKSRCVLVYATSDYSSVDRCNAAYIATAIAEFFRTEGHKVALFIDSLTRYARALRDVALAAGASPARRGYPVSVFDSLPRLLERPGKLKAGGSITAFYTVLLEDDDFADPLAEEVRSILDGHIYLSRNLAQKGQFPAIDSLKSISRVFTQVVDEKHRIMAAAFRELLSEIEELRTIIDFGEYKPGENASQDKIYNKISVVESFLKQDYRLGFTYEQTMELIGETIR
In the case of B1, the binding result is “binds”.

B2: Spa47 E267R (enzyme)
chain: B1 chain with A267R
As to B2, the binding result was “binds”.
